Source: the supplement of paper PMC7877785
± gives the uncertainty stated by the source.

Assay: self-splicing fitness, log relative to wild type (ln ratio); higher = more splicing; Tetrahymena group I intron in knt gene, E. coli kanamycin selection, DiMSum; sequences stand for … in CUCUCU…GGAGGGAAAAGUUAUCAGGCAUGCACCUGGUAGCUAGUCUUUAAACCAAUAGAUUGCAUCGGUUUAAAAGGCAAGACCGUCAAAUUGCGGGAAAGGGGUCAACAGCCGUUCAGUACCAAGUCUCAGGGGAAACUUUGAGAUGGCCUUGCAAAGGGUAUGGUAAUAAGCUGACGGACAUGGUCCUAACCACGCAGCCAAGUCCUAAGUCAACAGAUCUUCUGUUGAUAUGGAUGCAGUUCACAGACUAAAUGUCGGUCGGGGAAGAUGUAUUCUUCUCAUAAGAUAUAGUCGGACCUCUCCUUAAUGGGAGCUAGCGGAUGAAGUGAUGCAACACUGGAGCCGCUGGGAACUAAUUUGUAUGCGAAAGUAUAUUGAUUAGUUUUGGAGUACUCGUGGUCG
In short: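 Fitness was computed with DiMSum as the error-weighted combination of replicate fold changes, kanamycin versus none, each normalised to wild type. The library randomised all eight intron nucleotides of the P1ex region, with the intron placed in the knt kanamycin-resistance gene on pET-22b(+) in E. coli BL21(DE3). Six replicate transformations were grown overnight at 37°C or 30°C on LB agar with or without 25 μg/mL kanamycin, plus 100 μg/mL carbenicillin, 50 μM IPTG and 0.2% rhamnose. Pooled colonies were amplicon-sequenced on an Illumina HiSeq 2500.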

Sequence | self-splicing fitness (ln) (30 °C) | self-splicing fitness (ln) (37 °C)
UUCAAGCAAUAUUACGGACA | -0.496 ± 0.12 | 0.121 ± 0.11
UUGCAGCAAUAUUACGCACU | -1.6 ± 0.13 | -1.15 ± 0.13
CCACAGCAAUAUUACGGAUA | -2.27 ± 0.12 | -2.68 ± 0.18
CUAAAGCAAUAUUACGAAAC | -3.29 ± 0.45 | -2.67 ± 0.41
AAACAGCAAUAUUACGCCCU | -0.534 ± 0.11 | 0.201 ± 0.16
UUCAAGCAAUAUUACGUCGC | -4.02 ± 0.3 | -2.17 ± 0.3
ACCCAGCAAUAUUACGCGAU | -1.84 ± 0.1 | -1.47 ± 0.11
CGUGAGCAAUAUUACGUCUC | -3.22 ± 0.21 | -2.29 ± 0.19
CUCCAGCAAUAUUACGAGUU | -2.87 ± 0.17 | -2.66 ± 0.29
GCUAAGCAAUAUUACGUUGC | -2.26 ± 0.46 | -1.71 ± 0.38
GAGUAGCAAUAUUACGUGCG | -2.61 ± 0.17 | 0.0549 ± 0.13
UCACAGCAAUAUUACGCAUU | -2.93 ± 0.22 | 
UCCCAGCAAUAUUACGAAAA | -2.38 ± 0.2 | -0.834 ± 0.18
UCGAAGCAAUAUUACGGCGC | -3.11 ± 0.34 | -2.04 ± 0.32
UUGCAGCAAUAUUACGGCAG | -0.754 ± 0.14 | -1.27 ± 0.17
UUGGAGCAAUAUUACGCGCA | -2.48 ± 0.29 | -1.09 ± 0.29
CGCGAGCAAUAUUACGUCGA | -4.28 ± 0.46 | -2.73 ± 0.24
CAAAAGCAAUAUUACGCGCC | -2.04 ± 0.17 | -0.789 ± 0.19
UAUCAGCAAUAUUACGCCGU | -1.43 ± 0.24 | 0.487 ± 0.22
GCAAAGCAAUAUUACGAUGC | -3.46 ± 0.24 | -2.53 ± 0.32
UUGGAGCAAUAUUACGCGAG | -1.15 ± 0.13 | -1.8 ± 0.21
CAGUAGCAAUAUUACGUAAC |  | -0.919 ± 0.33
UCUAAGCAAUAUUACGUCCA | -2 ± 0.14 | -0.707 ± 0.13
CCCAAGCAAUAUUACGUUGU | -3.3 ± 0.095 | -2.43 ± 0.11
UUGCAGCAAUAUUACGAAAG |  | -1.5 ± 0.35

Sequence | self-splicing fitness (ln) (30 °C) | self-splicing fitness (ln) (37 °C)
GAGAAGCAAUAUUACGGAAU | -3.69 ± 0.25 | -1.55 ± 0.2
CGAUAGCAAUAUUACGAGGA | -3.08 ± 0.38 | -2.27 ± 0.38
ACCCAGCAAUAUUACGACUA | -0.803 ± 0.082 | -0.765 ± 0.086
CUUAAGCAAUAUUACGCCCG | -1.46 ± 0.28 | 0.386 ± 0.3
UCUGAGCAAUAUUACGGCCG | -2.7 ± 0.37 | 
AAGCAGCAAUAUUACGCCGU | -1.22 ± 0.11 | -0.738 ± 0.13
GUCCAGCAAUAUUACGGGGG | -2.01 ± 0.1 | -1.55 ± 0.14
GAUUAGCAAUAUUACGCUAA | -3.24 ± 0.39 | -1.89 ± 0.35
AUACAGCAAUAUUACGCGAU | -3.88 ± 0.33 | -1.94 ± 0.21
UCGAAGCAAUAUUACGUAGU | -2.53 ± 0.11 | -0.666 ± 0.11
CACCAGCAAUAUUACGUGGG | -3.41 ± 0.095 | -3.03 ± 0.12
CCUUAGCAAUAUUACGAAUU |  | -2.29 ± 0.49
GCUGAGCAAUAUUACGAGCC | -1.55 ± 0.43 | 
ACCGAGCAAUAUUACGUUAU | -3.78 ± 0.14 | -2.6 ± 0.15
AACCAGCAAUAUUACGUCAA | -1.38 ± 0.062 | -1.06 ± 0.074
GAAUAGCAAUAUUACGGAGG | -4.24 ± 0.3 | -2.27 ± 0.22
AAGAAGCAAUAUUACGAAUU | -1.53 ± 0.084 | -0.992 ± 0.12
CUAAAGCAAUAUUACGGUCU | -3.74 ± 0.21 | -3.69 ± 0.29
GACAAGCAAUAUUACGUGUU | -3.4 ± 0.12 | -2.21 ± 0.12
AGCGAGCAAUAUUACGUAUU | -3.54 ± 0.17 | -1.79 ± 0.16
UAUUAGCAAUAUUACGAACU | -1.27 ± 0.11 | -0.806 ± 0.13
ACAAAGCAAUAUUACGGGGA | -2.95 ± 0.14 | -1.05 ± 0.088
AGCGAGCAAUAUUACGGGCC | -3.58 ± 0.47 | -2.88 ± 0.43
CAAAAGCAAUAUUACGGCUU | -3.44 ± 0.11 | -2.39 ± 0.11
GGUAAGCAAUAUUACGUGAG | -1.03 ± 0.079 | 0.0462 ± 0.09

Sequence | self-splicing fitness (ln) (30 °C) | self-splicing fitness (ln) (37 °C)
AGGCAGCAAUAUUACGCAUC | -3.99 ± 0.19 | -1.04 ± 0.11
CAACAGCAAUAUUACGAUCU | -2.02 ± 0.13 | -0.986 ± 0.12
GUUAAGCAAUAUUACGACAA | -0.704 ± 0.29 | -1.12 ± 0.26
ACCGAGCAAUAUUACGAAGA | -3.11 ± 0.28 | -2.54 ± 0.29
AAAGAGCAAUAUUACGGUUA | -2.49 ± 0.21 | -2.06 ± 0.18
AAGCAGCAAUAUUACGGCUG | -2.92 ± 0.12 | -2.75 ± 0.16
AUAAAGCAAUAUUACGACGA | -0.00868 ± 0.096 | 0.701 ± 0.12
UAACAGCAAUAUUACGCCUU | -1.48 ± 0.074 | -0.968 ± 0.094
GAAAAGCAAUAUUACGAAUA | -1.57 ± 0.13 | -1.19 ± 0.1
CUUCAGCAAUAUUACGGACA | -3.26 ± 0.35 | -2.3 ± 0.26
UACUAGCAAUAUUACGAGCU | -2.4 ± 0.24 | 
AAUGAGCAAUAUUACGAUAC | -4 ± 0.33 | 
UCGUAGCAAUAUUACGAGGA | -3.72 ± 0.39 | -2.58 ± 0.29
UGCUAGCAAUAUUACGAGCA |  | -2.39 ± 0.39
AUAGAGCAAUAUUACGUUGA | -1.89 ± 0.12 | -1.4 ± 0.12
UGAAAGCAAUAUUACGCAGA | -1.68 ± 0.12 | -1.93 ± 0.15
AUAGAGCAAUAUUACGGGUG | -3.22 ± 0.24 | -2.58 ± 0.26
AGAGAGCAAUAUUACGUCGA | -2 ± 0.32 | 
AUCUAGCAAUAUUACGCACU | -1.42 ± 0.17 | 0.0807 ± 0.17
AUACAGCAAUAUUACGUGUU | -3.98 ± 0.21 | -2.64 ± 0.22
CUUCAGCAAUAUUACGAUGG | -2.3 ± 0.11 | -1.38 ± 0.15
CACGAGCAAUAUUACGUGCC |  | -3.4 ± 0.28
CUGCAGCAAUAUUACGCUUU | -4.46 ± 0.28 | -2.6 ± 0.26
UGCUAGCAAUAUUACGAGUA | -1.34 ± 0.072 | -0.447 ± 0.076
AAACAGCAAUAUUACGCUCG | -1.11 ± 0.083 | -0.7 ± 0.11

Sequence | self-splicing fitness (ln) (30 °C) | self-splicing fitness (ln) (37 °C)
UACCAGCAAUAUUACGUAAU | -2.56 ± 0.097 | -1.06 ± 0.096
AGUCAGCAAUAUUACGUGCG | -0.277 ± 0.078 | -0.317 ± 0.088
AGCUAGCAAUAUUACGAGCG | -0.417 ± 0.085 | -0.0421 ± 0.11
GUUCAGCAAUAUUACGUAGC | -0.047 ± 0.087 | -0.0432 ± 0.11
AACAAGCAAUAUUACGGGAU | -2.27 ± 0.098 | -1.01 ± 0.1
CGAAAGCAAUAUUACGGCAU | -2.26 ± 0.12 | -0.29 ± 0.089
AAAAAGCAAUAUUACGGCAA | -0.286 ± 0.092 | 0.328 ± 0.12
CUUUAGCAAUAUUACGGUAU | -4.49 ± 0.34 | -2.4 ± 0.24
UUGUAGCAAUAUUACGUUUC | -3.69 ± 0.46 | 
UGUCAGCAAUAUUACGUACU | -0.114 ± 0.058 | 0.497 ± 0.078
CGUAAGCAAUAUUACGCCGU | -3.89 ± 0.26 | -2.65 ± 0.21
AUAAAGCAAUAUUACGGUCC | -0.883 ± 0.14 | -0.458 ± 0.17
UGCAAGCAAUAUUACGCCAU | -4.18 ± 0.42 | -1.87 ± 0.29
AGUGAGCAAUAUUACGUACG | -2.22 ± 0.16 | -1.3 ± 0.13
CGCCAGCAAUAUUACGAGUU | -3.19 ± 0.15 | -3.16 ± 0.2
AUGCAGCAAUAUUACGUAGG | -1.72 ± 0.082 | -1.16 ± 0.11
CAAUAGCAAUAUUACGUUAU | -4.87 ± 0.34 | -1.57 ± 0.18
UCAGAGCAAUAUUACGUCAA | -3.81 ± 0.4 | -2.13 ± 0.23
AAAGAGCAAUAUUACGUGAA | -3.27 ± 0.14 | -2.44 ± 0.16
UGAUAGCAAUAUUACGUACU | 0.125 ± 0.1 | -0.524 ± 0.11
CCGGAGCAAUAUUACGCUGA | -1.42 ± 0.29 | -1.75 ± 0.45
CCUGAGCAAUAUUACGGCGG | -2.37 ± 0.13 | -1.92 ± 0.17
UCAGAGCAAUAUUACGUCGA | -1.11 ± 0.072 | -0.44 ± 0.11
ACUGAGCAAUAUUACGGCUU | -3.22 ± 0.21 | -3.27 ± 0.4
